Experimental data as given in patent US20160355591A1.

Experiments:
[1] = target: CD74 on dog lymphocytes and dog lymphoma cells (dog); experiment: flow cytometry, dog lymphoma aspirate; none 3.24
[2] = target: CD74 on dog lymphocytes and dog lymphoma cells (dog); experiment: flow cytometry, dog lymphoma aspirate; none 4.48
[3] = target: CD74 on human cells (human) (UniProt P04233); experiment: indirect FACS, Raji cells, FITC-GAH Fc 2nd Ab; none 6.8
[4] = target: CD74 on human cells (human) (UniProt P04233); experiment: indirect FACS, Daudi cells, FITC-GAH Fc 2nd Ab; none 3.1
[5] = target: CD74 on human cells (human) (UniProt P04233); experiment: indirect FACS, Ramos cells, FITC-GAH Fc 2nd Ab; none 3.1
[6] = target: CD74 on dog lymphocytes and dog lymphoma cells (dog); experiment: flow cytometry, canine lymphoma aspirate 150836; none 3.2
[7] = target: CD74 on dog lymphocytes and dog lymphoma cells (dog); experiment: flow cytometry, canine lymphoma aspirate 150836; none 4.5
[8] = target: CD74 on human cells (human) (UniProt P04233); experiment: indirect FACS, Namalwa cells, FITC-GAH Fc 2nd Ab; none 2.5
[9] = target: CD74 on human cells (human) (UniProt P04233); experiment: indirect FACS, SU-DHL-6 cells, FITC-GAH Fc 2nd Ab; none 4.6
[10] = target: CD74 on human cells (human) (UniProt P04233); experiment: indirect FACS, WSU-FSCCL cells, FITC-GAH Fc 2nd Ab; none 2.6
[11] = target: CD74 on human cells (human) (UniProt P04233); experiment: indirect flow cytometry, RL cells, FITC-GAH Fc 2nd Ab; none 2.4
[12] = target: CD74 on human cells (human) (UniProt P04233); experiment: indirect flow cytometry, Raji cells, FITC-GAH Fc 2nd Ab; none 6.9
[13] = target: CD74 on human cells (human) (UniProt P04233); experiment: indirect flow cytometry, Namalwa cells, FITC-GAH 2nd Ab; none 2.52
[14] = target: CD74 on human cells (human) (UniProt P04233); experiment: indirect flow cytometry, Daudi cells, FITC-GAH Fc 2nd Ab; none 3.2
[15] = target: CD74 on human cells (human) (UniProt P04233); experiment: indirect flow cytometry, Ramos cells, FITC-GAH Fc 2nd Ab; none 3.1
[16] = target: CD74 on human cells (human) (UniProt P04233); experiment: indirect flow cytometry, Namalwa cells, FITC-GAH Fc 2nd Ab; none 2.6
[17] = target: CD74 on human cells (human) (UniProt P04233); experiment: indirect flow cytometry, SU-DHL-6 cells, FITC-GAH Fc 2nd Ab; none 4.6
[18] = target: CD74 on human cells (human) (UniProt P04233); experiment: indirect flow cytometry, WSU-FSCCL cells, FITC-GAH Fc 2nd Ab; none 2.7

Chain of CD74 on human cells (human) (P04233 whole entry): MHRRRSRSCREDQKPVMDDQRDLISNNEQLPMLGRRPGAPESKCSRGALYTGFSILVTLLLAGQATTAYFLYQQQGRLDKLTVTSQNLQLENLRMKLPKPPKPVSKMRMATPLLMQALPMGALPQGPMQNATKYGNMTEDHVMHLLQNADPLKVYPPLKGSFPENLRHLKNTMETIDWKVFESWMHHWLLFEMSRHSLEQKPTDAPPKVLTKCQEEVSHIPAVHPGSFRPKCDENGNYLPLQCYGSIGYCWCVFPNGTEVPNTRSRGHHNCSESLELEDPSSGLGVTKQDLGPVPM

With “hLL1 (milatuzumab, humanized anti-CD74) (antibody)” the mean FL [1] was 3.33, the % Positive [2] was 4.71% and the geometric mean fluorescence [3] was 95.1. The geometric mean fluorescence [4] was 48.8, the geometric mean fluorescence [5] was 23.2 and the mean FL [6] was 3.3. The % Positive [7] was 4.7%, the geometric mean fluorescence [8] was 7.81 and the geometric mean fluorescence [9] was 17.3. It also gave a geometric mean fluorescence [10] of 8.66, a geometric mean fluorescence [11] of 7.9 and a geometric mean fluorescence [12] of 95.1. It also gave a geometric mean fluorescence [13] of 10.1, a geometric mean fluorescence [14] of 48.8 and a geometric mean fluorescence [15] of 23.3. For the same substance, the geometric mean fluorescence [16] was 7.8, the geometric mean fluorescence [17] was 17.3 and the geometric mean fluorescence [18] was 8.7.
